What follows are sequences tested on Escherichia coli TOP10 (assay: shrunken log2 fold change of peptide-encoding DNA abundance (4.5 h post-induction vs induction); higher = less antimicrobial activity (less host growth inhibition)). Conditions: time post-induction: 4.5 h; library: site-saturation at positions 5, 18, 19, 20.
With RRIRLRPPRLPRPRPRPNLNPRP the “shrunken log2 fold change” value was -0.716.
In the case of RRIRHRPPRLPRPRPRPPQIPRP, the “shrunken log2 fold change” value is reported as -0.0667.
In the case of RRIRYRPPRLPRPRPRPTHEPRP, the “shrunken log2 fold change” value is reported as 0.0198.
In the case of RRIRTRPPRLPRPRPRPARLPRP, the “shrunken log2 fold change” value is reported as 0.215.
With RRIRRRPPRLPRPRPRPTDTPRP the “shrunken log2 fold change” value was -0.11.
With RRIRFRPPRLPRPRPRPDCSPRP the “shrunken log2 fold change” value was 0.0229.
With RRIRYRPPRLPRPRPRPVLVPRP the “shrunken log2 fold change” value was -0.507.
In the case of RRIRSRPPRLPRPRPRPRLHPRP, the “shrunken log2 fold change” value is reported as 0.15.
For RRIRSRPPRLPRPRPRPCHNPRP, the “shrunken log2 fold change” value was -0.364.
In the case of RRIRHRPPRLPRPRPRPKWWPRP, the “shrunken log2 fold change” value is reported as 0.0178.
RRIRGRPPRLPRPRPRPICQPRP was tested, and the “shrunken log2 fold change” value was 0.655.
In the case of RRIRMRPPRLPRPRPRPNQMPRP, the “shrunken log2 fold change” value is reported as 0.217.
For RRIRARPPRLPRPRPRPGDHPRP, the “shrunken log2 fold change” value was 0.114.
With RRIRTRPPRLPRPRPRPCCDPRP the “shrunken log2 fold change” value was -0.151.
RRIRERPPRLPRPRPRPQMLPRP was tested, and the “shrunken log2 fold change” value was -0.0206.
With RRIRKRPPRLPRPRPRPVHAPRP the “shrunken log2 fold change” value was 0.464.
RRIRPRPPRLPRPRPRPAACPRP was tested, and the “shrunken log2 fold change” value was 0.103.
For RRIRCRPPRLPRPRPRPMFRPRP, the “shrunken log2 fold change” value was -0.179.
RRIRFRPPRLPRPRPRPKKPPRP was tested, and the “shrunken log2 fold change” value was -0.0169.
In the case of RRIRNRPPRLPRPRPRPAHVPRP, the “shrunken log2 fold change” value is reported as -0.0508.
With RRIRMRPPRLPRPRPRPVDDPRP the “shrunken log2 fold change” value was -0.0248.
In the case of RRIRQRPPRLPRPRPRPCYFPRP, the “shrunken log2 fold change” value is reported as -0.734.
RRIRRRPPRLPRPRPRPNSAPRP was tested, and the “shrunken log2 fold change” value was 0.282.
In the case of RRIRWRPPRLPRPRPRPAEYPRP, the “shrunken log2 fold change” value is reported as 0.101.
With RRIRSRPPRLPRPRPRPVPVPRP the “shrunken log2 fold change” value was 0.362.
For RRIRPRPPRLPRPRPRPPHSPRP, the “shrunken log2 fold change” value was 1.31.
With RRIRCRPPRLPRPRPRPDIAPRP the “shrunken log2 fold change” value was 0.38.
In the case of RRIRWRPPRLPRPRPRPHYVPRP, the “shrunken log2 fold change” value is reported as -0.113.
For RRIRGRPPRLPRPRPRPVFGPRP, the “shrunken log2 fold change” value was 0.556.
For RRIRYRPPRLPRPRPRPHSIPRP, the “shrunken log2 fold change” value was -0.311.
RRIRVRPPRLPRPRPRPEKNPRP was tested, and the “shrunken log2 fold change” value was 0.0805.
RRIRDRPPRLPRPRPRPLASPRP was tested, and the “shrunken log2 fold change” value was 0.171.
In the case of RRIRLRPPRLPRPRPRPSSHPRP, the “shrunken log2 fold change” value is reported as -0.196.
In the case of RRIRGRPPRLPRPRPRPVQKPRP, the “shrunken log2 fold change” value is reported as 0.434.
RRIRGRPPRLPRPRPRPNNSPRP was tested, and the “shrunken log2 fold change” value was -0.114.
RRIRRRPPRLPRPRPRPLNEPRP was tested, and the “shrunken log2 fold change” value was 0.162.
For RRIRFRPPRLPRPRPRPWDDPRP, the “shrunken log2 fold change” value was -0.636.
In the case of RRIRRRPPRLPRPRPRPLMQPRP, the “shrunken log2 fold change” value is reported as 0.396.
For RRIRWRPPRLPRPRPRPRNFPRP, the “shrunken log2 fold change” value was 0.0292.
With RRIRVRPPRLPRPRPRPEVQPRP the “shrunken log2 fold change” value was 0.148.
For RRIRPRPPRLPRPRPRPCTWPRP, the “shrunken log2 fold change” value was 0.025.
RRIRIRPPRLPRPRPRPEMYPRP was tested, and the “shrunken log2 fold change” value was -0.174.
For RRIRERPPRLPRPRPRPGIPPRP, the “shrunken log2 fold change” value was -0.421.
With RRIRVRPPRLPRPRPRPGVLPRP the “shrunken log2 fold change” value was 0.0138.
With RRIRERPPRLPRPRPRPVYRPRP the “shrunken log2 fold change” value was -0.514.
For RRIRERPPRLPRPRPRPGYVPRP, the “shrunken log2 fold change” value was -0.227.
With RRIRKRPPRLPRPRPRPNYKPRP the “shrunken log2 fold change” value was -0.507.
In the case of RRIRHRPPRLPRPRPRPGVSPRP, the “shrunken log2 fold change” value is reported as 0.0185.
For RRIRPRPPRLPRPRPRPTDDPRP, the “shrunken log2 fold change” value was -0.392.
RRIRDRPPRLPRPRPRPETMPRP was tested, and the “shrunken log2 fold change” value was 0.0179.
In the case of RRIRLRPPRLPRPRPRPTIMPRP, the “shrunken log2 fold change” value is reported as -0.334.
For RRIRNRPPRLPRPRPRPDRCPRP, the “shrunken log2 fold change” value was -0.0122.
For RRIRTRPPRLPRPRPRPRQMPRP, the “shrunken log2 fold change” value was 0.641.
RRIRYRPPRLPRPRPRPYAYPRP was tested, and the “shrunken log2 fold change” value was -0.948.
With RRIRQRPPRLPRPRPRPWVNPRP the “shrunken log2 fold change” value was -0.215.
With RRIRRRPPRLPRPRPRPLDWPRP the “shrunken log2 fold change” value was 0.297.
For RRIRPRPPRLPRPRPRPEFRPRP, the “shrunken log2 fold change” value was -0.00133.
In the case of RRIRARPPRLPRPRPRPNYNPRP, the “shrunken log2 fold change” value is reported as -0.556.
For RRIRQRPPRLPRPRPRPVHLPRP, the “shrunken log2 fold change” value was 0.00299.
In the case of RRIRMRPPRLPRPRPRPCKTPRP, the “shrunken log2 fold change” value is reported as -0.00146.
With RRIRSRPPRLPRPRPRPETVPRP the “shrunken log2 fold change” value was 0.211.
For RRIRMRPPRLPRPRPRPAYVPRP, the “shrunken log2 fold change” value was -0.114.

From the supplement of paper PMC9112550, “Optimization of the antimicrobial peptide Bac7 by deep mutational scanning” (BMC Biology, 2022)
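Further: peptides expressed intracellularly from a pBAD plasmid library in pooled LB shake-flask culture, induced with 0.3% L-arabinose, DNA abundance read by NGS, three biological replicates, DESeq2 with apeglm shrinkage.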
